Source: paper PMC2191977 (The Journal of Experimental Medicine, 1995)

Biological target: T1, B7 S177A (mouse, UniProt Q00609 38-306, S177A)
T1 sequence (looked up): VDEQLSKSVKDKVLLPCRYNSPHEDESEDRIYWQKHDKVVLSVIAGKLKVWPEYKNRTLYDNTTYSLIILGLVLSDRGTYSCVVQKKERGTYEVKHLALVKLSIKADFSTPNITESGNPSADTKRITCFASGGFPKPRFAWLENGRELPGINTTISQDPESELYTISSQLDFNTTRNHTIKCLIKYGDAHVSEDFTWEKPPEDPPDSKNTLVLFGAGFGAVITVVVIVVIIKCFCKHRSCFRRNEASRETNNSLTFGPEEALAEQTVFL
Assay: flow cytometry on cells

- % wild-type B7 binding (normalised to anti-B7 mAb 10.16A.1): 63%
- MF (mean fluorescence, control subtracted): 40 MF
B1: CD28Ig (Fc fusion, mouse, UniProt P31041 20-150, looked up)
chain: NKILVKQSPLLVVDSNEVSLSCRYSYNLLAKEFRASLYKGVNSDVEVCVGNGNFTYQPQFRSNAEFNCDGDFDNETVTFRLWNLHVNHTDIYFCKIEFMYPPPYLDNERSNGTIIHIKEKHLCHTQSSPKL
